Reference: the supplement of paper PMC7877785
± gives the uncertainty stated by the source.

Test: self-splicing fitness, log relative to wild type (ln ratio); higher = more splicing; Tetrahymena group I intron in knt gene, E. coli kanamycin selection, DiMSum; sequences stand for … in CUCUCU…GGAGGGAAAAGUUAUCAGGCAUGCACCUGGUAGCUAGUCUUUAAACCAAUAGAUUGCAUCGGUUUAAAAGGCAAGACCGUCAAAUUGCGGGAAAGGGGUCAACAGCCGUUCAGUACCAAGUCUCAGGGGAAACUUUGAGAUGGCCUUGCAAAGGGUAUGGUAAUAAGCUGACGGACAUGGUCCUAACCACGCAGCCAAGUCCUAAGUCAACAGAUCUUCUGUUGAUAUGGAUGCAGUUCACAGACUAAAUGUCGGUCGGGGAAGAUGUAUUCUUCUCAUAAGAUAUAGUCGGACCUCUCCUUAAUGGGAGCUAGCGGAUGAAGUGAUGCAACACUGGAGCCGCUGGGAACUAAUUUGUAUGCGAAAGUAUAUUGAUUAGUUUUGGAGUACUCGUGGUCG
How it was run: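 The eight P1ex-region nucleotides of an intron in the knt kanamycin-resistance gene on pET-22b(+) were all randomised and the library put into E. coli BL21(DE3). Six replicate transformations were grown overnight at 37°C or 30°C on LB agar with or without 25 μg/mL kanamycin, together with 100 μg/mL carbenicillin, 50 μM IPTG and 0.2% rhamnose. Colonies were pooled and amplicon-sequenced on an Illumina HiSeq 2500. Fitness from DiMSum is the error-weighted combination of wild-type-normalised replicate fold changes, kanamycin over none.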

| Sequence | self-splicing fitness (ln) (30 °C) | self-splicing fitness (ln) (37 °C) |
| --- | --- | --- |
| ACUCAGCAAUAUUACGACUU | -0.301 ± 0.054 | 0.0543 ± 0.073 |
| ACUCAGCAAUAUUACGAGGA | -1.67 ± 0.11 | -0.591 ± 0.095 |
| ACUCAGCAAUAUUACGAGUU | -4.72 ± 0.21 | -2.36 ± 0.17 |
| ACUCAGCAAUAUUACGAUUA | -0.552 ± 0.065 | -0.431 ± 0.067 |
| ACUCAGCAAUAUUACGCAUG | -2.09 ± 0.15 | -2.23 ± 0.15 |
| ACUCAGCAAUAUUACGCCCA | -1.42 ± 0.13 | -0.482 ± 0.15 |
| ACUCAGCAAUAUUACGCCUC | -0.758 ± 0.095 | -1.13 ± 0.13 |
| ACUCAGCAAUAUUACGGACA | -1.02 ± 0.1 | -1.06 ± 0.12 |
| ACUCAGCAAUAUUACGGACC | -0.551 ± 0.13 | 0.137 ± 0.14 |
| ACUCAGCAAUAUUACGGAGU | -2.78 ± 0.11 | -2.7 ± 0.18 |
| ACUCAGCAAUAUUACGGAUC | -1.46 ± 0.1 | -0.352 ± 0.11 |
| ACUCAGCAAUAUUACGGCAC | -1.24 ± 0.17 | -0.799 ± 0.25 |
| ACUCAGCAAUAUUACGGCGA | -1.41 ± 0.1 | -0.93 ± 0.12 |
| ACUCAGCAAUAUUACGUGAG | -1.55 ± 0.062 | -0.663 ± 0.082 |
| ACUCAGCAAUAUUACGUGCC | -0.982 ± 0.13 | -0.189 ± 0.12 |
| ACUCAGCAAUAUUACGUUGU | -3.45 ± 0.11 | -2.23 ± 0.13 |
| ACUGAGCAAUAUUACGAACG | -2.48 ± 0.17 | -1.77 ± 0.21 |
| ACUGAGCAAUAUUACGACAU | -2.109 ± 0.015 | -1.12 ± 0.034 |
| ACUGAGCAAUAUUACGACCU | -1.57 ± 0.11 | -0.583 ± 0.13 |
| ACUGAGCAAUAUUACGACGU | -1.53 ± 0.11 | -1.66 ± 0.15 |
| ACUGAGCAAUAUUACGAGAA | -2.33 ± 0.38 | -1.96 ± 0.32 |
| ACUGAGCAAUAUUACGAGGC | -3.07 ± 0.23 | -2.59 ± 0.36 |
| ACUGAGCAAUAUUACGAGUG | -3.1 ± 0.12 | -2.76 ± 0.14 |
| ACUGAGCAAUAUUACGAUGA | -1.9 ± 0.091 | -1.59 ± 0.098 |
| ACUGAGCAAUAUUACGAUGU | -2.83 ± 0.14 | -2.67 ± 0.2 |

| Sequence | self-splicing fitness (ln) (30 °C) | self-splicing fitness (ln) (37 °C) |
| --- | --- | --- |
| ACUGAGCAAUAUUACGCAGC | – | -1.7 ± 0.42 |
| ACUGAGCAAUAUUACGCCGC | -3.95 ± 0.34 | -1.23 ± 0.49 |
| ACUGAGCAAUAUUACGCCGU | – | -2.31 ± 0.4 |
| ACUGAGCAAUAUUACGCGCU | -3.03 ± 0.23 | -2.1 ± 0.26 |
| ACUGAGCAAUAUUACGCGUA | -1.8 ± 0.15 | -3.16 ± 0.28 |
| ACUGAGCAAUAUUACGCUAG | -1.72 ± 0.2 | -3.23 ± 0.34 |
| ACUGAGCAAUAUUACGGAAC | – | -1.92 ± 0.29 |
| ACUGAGCAAUAUUACGGAAG | -2.52 ± 0.13 | -1.21 ± 0.2 |
| ACUGAGCAAUAUUACGGGCU | -3.34 ± 0.17 | -2.92 ± 0.25 |
| ACUGAGCAAUAUUACGUAGA | -3.68 ± 0.17 | -2.51 ± 0.23 |
| ACUGAGCAAUAUUACGUAUC | – | -2.99 ± 0.44 |
| ACUGAGCAAUAUUACGUCUA | – | -2.44 ± 0.25 |
| ACUGAGCAAUAUUACGUCUC | -3.61 ± 0.2 | -3.51 ± 0.33 |
| ACUGAGCAAUAUUACGUCUU | -2.57 ± 0.13 | -1.11 ± 0.12 |
| ACUGAGCAAUAUUACGUGAA | -2.94 ± 0.17 | -2.09 ± 0.17 |
| ACUGAGCAAUAUUACGUGGC | -3.3 ± 0.22 | -1.79 ± 0.25 |
| ACUGAGCAAUAUUACGUGGG | -3.55 ± 0.21 | -2.28 ± 0.16 |
| ACUGAGCAAUAUUACGUGGU | -4.07 ± 0.14 | -2.56 ± 0.13 |
| ACUUAGCAAUAUUACGAAUA | – | -1.76 ± 0.31 |
| ACUUAGCAAUAUUACGACCA | -0.584 ± 0.12 | -1.01 ± 0.12 |
| ACUUAGCAAUAUUACGAGCA | -1.2 ± 0.12 | -0.129 ± 0.13 |
| ACUUAGCAAUAUUACGAUGG | -2.19 ± 0.099 | -1.16 ± 0.12 |
| ACUUAGCAAUAUUACGAUUA | -1.05 ± 0.13 | -1.55 ± 0.13 |
| ACUUAGCAAUAUUACGCAGA | -2.32 ± 0.26 | -0.913 ± 0.15 |
| ACUUAGCAAUAUUACGCAUU | -1.27 ± 0.11 | -1.47 ± 0.17 |

| Sequence | self-splicing fitness (ln) (30 °C) | self-splicing fitness (ln) (37 °C) |
| --- | --- | --- |
| ACUUAGCAAUAUUACGCCAC | -3.2 ± 0.31 | -3.59 ± 0.31 |
| ACUUAGCAAUAUUACGCGCU | -0.535 ± 0.094 | -0.305 ± 0.097 |
| ACUUAGCAAUAUUACGCGUC | -3.62 ± 0.25 | -1.83 ± 0.26 |
| ACUUAGCAAUAUUACGCUCU | -0.715 ± 0.13 | -0.397 ± 0.14 |
| ACUUAGCAAUAUUACGGCAU | -1.01 ± 0.071 | -0.0593 ± 0.088 |
| ACUUAGCAAUAUUACGGGGU | -2.71 ± 0.16 | -2.73 ± 0.27 |
| ACUUAGCAAUAUUACGGUCA | -1.88 ± 0.15 | -0.773 ± 0.15 |
| ACUUAGCAAUAUUACGGUUU | -1.23 ± 0.11 | -0.718 ± 0.16 |
| ACUUAGCAAUAUUACGUGGA | -2.47 ± 0.13 | -2.7 ± 0.16 |
| AGAAAGCAAUAUUACGAAAA | -1.74 ± 0.13 | -0.577 ± 0.15 |
| AGAAAGCAAUAUUACGAACG | -0.489 ± 0.084 | -0.004 ± 0.12 |
| AGAAAGCAAUAUUACGAAUU | -0.791 ± 0.089 | -1.32 ± 0.11 |
| AGAAAGCAAUAUUACGACAA | -0.576 ± 0.087 | 0.0351 ± 0.089 |
| AGAAAGCAAUAUUACGACAG | -2.36 ± 0.11 | -0.954 ± 0.11 |
| AGAAAGCAAUAUUACGACUC | -1.53 ± 0.21 | -0.214 ± 0.2 |
| AGAAAGCAAUAUUACGAUUG | -3.82 ± 0.27 | -1.93 ± 0.21 |
| AGAAAGCAAUAUUACGCAUG | -1.66 ± 0.1 | -0.374 ± 0.1 |
| AGAAAGCAAUAUUACGCCCA | 0.247 ± 0.12 | 0.167 ± 0.2 |
| AGAAAGCAAUAUUACGCCCG | -0.679 ± 0.19 | -0.0334 ± 0.19 |
| AGAAAGCAAUAUUACGCCGA | -1.29 ± 0.15 | -0.795 ± 0.15 |
| AGAAAGCAAUAUUACGCUAC | -3.25 ± 0.39 | – |
| AGAAAGCAAUAUUACGGAGA | -3 ± 0.22 | -2.79 ± 0.23 |
| AGAAAGCAAUAUUACGGCAA | 0.0585 ± 0.1 | -0.187 ± 0.12 |
| AGAAAGCAAUAUUACGGCCU | 0.484 ± 0.11 | 0.212 ± 0.12 |
| AGAAAGCAAUAUUACGGCUG | -0.141 ± 0.11 | -0.414 ± 0.16 |

| Sequence | self-splicing fitness (ln) (30 °C) | self-splicing fitness (ln) (37 °C) |
| --- | --- | --- |
| AGAAAGCAAUAUUACGGGAG | -2.56 ± 0.097 | -1.97 ± 0.12 |
| AGAAAGCAAUAUUACGGGCA | -0.6 ± 0.14 | -0.0746 ± 0.12 |
| AGAAAGCAAUAUUACGGGUA | -1.32 ± 0.092 | -1.01 ± 0.095 |
| AGAAAGCAAUAUUACGGUGA | -0.65 ± 0.12 | -0.655 ± 0.14 |
| AGAAAGCAAUAUUACGGUGC | -2.39 ± 0.15 | -2.6 ± 0.31 |
| AGAAAGCAAUAUUACGUAGG | -2.89 ± 0.14 | -2.16 ± 0.15 |
| AGAAAGCAAUAUUACGUAUA | -2.13 ± 0.12 | -1.66 ± 0.13 |
| AGAAAGCAAUAUUACGUCCU | -0.0571 ± 0.065 | 0.432 ± 0.089 |
| AGAAAGCAAUAUUACGUCGG | -1.37 ± 0.088 | -1.04 ± 0.11 |
| AGAAAGCAAUAUUACGUGAG | -1.39 ± 0.065 | -0.952 ± 0.099 |
| AGAAAGCAAUAUUACGUGCU | -0.713 ± 0.063 | -1.28 ± 0.092 |
| AGAAAGCAAUAUUACGUGUC | -4.33 ± 0.31 | -1.67 ± 0.18 |
| AGAAAGCAAUAUUACGUUAA | -2.23 ± 0.14 | -1.44 ± 0.17 |
| AGAAAGCAAUAUUACGUUAU | -2.29 ± 0.099 | -1.58 ± 0.13 |
| AGACAGCAAUAUUACGAACU | -0.675 ± 0.076 | 0.326 ± 0.096 |
| AGACAGCAAUAUUACGACAG | -3.42 ± 0.14 | -0.41 ± 0.12 |
| AGACAGCAAUAUUACGACCC | -0.868 ± 0.29 | -0.564 ± 0.3 |
| AGACAGCAAUAUUACGACUU | -0.384 ± 0.074 | 0.347 ± 0.099 |
| AGACAGCAAUAUUACGAGCU | -1.22 ± 0.085 | -1.15 ± 0.11 |
| AGACAGCAAUAUUACGAGUG | -4.11 ± 0.16 | -1.9 ± 0.092 |
| AGACAGCAAUAUUACGAUAC | -2.64 ± 0.27 | -1.79 ± 0.25 |
| AGACAGCAAUAUUACGCCGC | – | -1.62 ± 0.38 |
